Source: patent US20240101687A1 (ABL BIO, published 2024)
Residue numbers refer to the chain shown, from its start. Names and notes keep the numbering of the source. Values joined by “and” are separate entries in the source; they are usually repeats but may differ in a detail not shown here. Equal values may be shown once. One block for each binder: values may come before it.

Experiments:
human beta-synuclein = target: T1, human beta-synuclein (human, UniProt Q16143 1-134, limits assumed); assay: ELISA, human beta-synuclein coated at 100 ng/ml
T1 construct: bought
Source text: (§1) For the positive control, RP-bound goat anti-rabbit was used as a detection antibody.

[1] = target: T2, amyloid beta1-42 aggregates (UniProt P05067 672-713); assay: dot blot, monomer and fibril of each protein spotted in rising amounts, antibody as probe
T2 construct: domain: amyloid beta1-42; aggregates prepared by Prof; Seung-jae Lee; also called amyloid beta1-42-derived aggregates
Procedure: (§2) The specific binding ability of the antibodies to the alpha-synuclein aggregate was analyzed by reacting with a blot.

Aβ42 (Monomer) = target: T3, Aβ42 (Monomer) (human, UniProt P05067); assay: as above
T3 construct: recombinant, monomer (not aggregated); m20 is the aggregated form; also called amyloid beta1-42 monomer
Procedure: as §2

[2] = target: human alpha-synuclein monomer (human, UniProt P37840 1-140); assay: SPR (BIAcore), antibody captured on Protein A chip, alpha-Syn monomer as analyte, 1:1 binding fit to a flat sensorgram, 25 C
[3] = target: T4, human alpha-synuclein aggregates (fibrils) (human, UniProt P37840 1-140); assay: SPR (BIAcore), antibody captured on Protein A chip, alpha-Syn fibril as analyte, 1:1 binding fit, 25 C
human gamma-synuclein = target: T5, human gamma-synuclein (human, UniProt O76070 1-127, limits assumed); assay: ELISA, human gamma-synuclein coated at 100 ng/ml
T5 construct: bought
Source text: as §1

Tau protein aggregates = target: T6, Tau protein aggregates (UniProt P10636-8 1-441, limits assumed); assay: dot blot
T6 construct: aggregates prepared by Prof; Seung-jae Lee; also called tau-derived aggregates

[4] = target: T4, human alpha-synuclein aggregates …; assay: sandwich ELISA, antibody coated at 1 ug/ml, alpha-synuclein fibril aggregates titrated
Procedure: ELISA analysis was performed to quantitatively analyze the binding affinity of the antibody of the present invention to the antigen. […] After washing with PBS, streptavidin conjugated with HRP and secondary antibody conjugate with biotin was treated and then reacted with TMB as a substrate.

[5] = target: T4, human alpha-synuclein aggregates …; assay: SPR (BIAcore), fibrils; table of results
Procedure: (§3) The running buffer, analyte dilution, and the sample dilution buffer were HBS-EP. […] For the capture, the monomer was for RU of 800 (theoretical), and a fibril was for RU of 100 (theoretical). The capture phase was performed at contact time of 60 seconds, a flow rate of 30 μl/min, and a stabilization period of 180 seconds. The association phase was performed at the association time of 120 seconds and the flow rate was 30 μl/min. The dissociation phase was performed at the dissociation time of 360 seconds and the flow rate of 30 l/min. The regeneration phase was performed twice time at the regeneration time of 240 seconds (primary) and 60 seconds (secondary) and a flow rate of 30 μl/min. The fitting was carried out suing 1:1 binding model, and the evaluation software was BIACore T200 Evaluation software (GE healthcare).

[6] = target: T4, human alpha-synuclein aggregates …; assay: Octet (BLI), fibrils; table of results
Procedure: The target concentrations were 20 μg/ml for the monomer and 0.4 μg/ml for the fibril. The kinetics concentration was diluted sequentially two times from 50 nM for monomers and from 100 nM for fibrils, to give 7 points in total, respectively. Association/dissociation time was 5 min/20 min for monomer and 5 min/25 min for fibril. Biosensor was ARG2 and fitting was performed using 1:1 fitting model.

[7] = target: T7, human IGF1R extracellular domain, His-tagged (human, UniProt P08069 31-932); assay: ELISA, hIGF1R coated, minibody titrated 0.000256-20 nM, Abs. at 450 nm
T7 construct: Bought (R&D Systems 391-GR or Sino Biological 10164-H08H); also called recombinant IGF1R; ECD of IGF1R
Procedure: Human IGF1R was diluted with 1 ug/ml in PBS buffer, added at an amount of 100 ul per well in 96-well ELISA plate (Nunc-Immuno Plates, NUNC, Rochester, NY), coated by reacting at 4° C. for 16 hours, and then the supernatant was removed. PBS buffer containing 3% BSA (bovine serum albumin) was added to 200 ul per well and reacted for 2 hours to block non-specific binding.
After treatment, it was wash 4 times with PBS buffer containing 0.05% Tween20, and was reacted at room temperature for an hour by adding 100 ul of the anti-human HRP recognizing human Fe of the minibody diluted in blocking buffer at 1:5000 per each well. After washing 4 times with 300 ul of PBS-T (Tween20 0.05%), the color development was performed using TMB (Tetramethylbenzidine, Sigma, T0440).

[8] = target: T4, human alpha-synuclein aggregates …; assay: SPR (BIAcore), antibody captured on Protein A chip, alpha-synuclein fibril (sample aSyn180330) as analyte, 1:1 binding fit, 25 C
Procedure: as §3

[9] = target: T4, human alpha-synuclein aggregates …; assay: sandwich ELISA, antibody coated in a dilution series, synuclein fibril aggregates at 2000 ng/ml; C of the 4-P fit, which paragraph 260 calls EC50
Procedure: Specifically, each antibody was diluted at 1/10 ratio of concentrations 0.04 to 400 nM and was coated on a 96-well plate, and then each well was treated with synuclein fibril aggregates were treated at 2000 ng/ml. After washing with 1×PBS, streptavidin conjugated with HRP and secondary antibody conjugate with biotin was treated and then reacted with TMB as a substrate. The absorbance was measured.

[10] = target: T4, human alpha-synuclein aggregates …; assay: BIAcore as in Example 4-3, α-syn aggregates
Procedure: as §3

human IGF1R on cells = target: T8, human IGF1R on cells (human, UniProt P08069 31-1367); assay: FACS on MCF-7 cells, 10 ug/mL (2nd Ab only: 2.86)
T8 construct: also called endogenous IGF1R on the cell surface (MCF-7, JIMT-1, BT474, SKBR3); IGF1R library on OVCAR3 cells
Procedure: After washing with PBS buffer containing 1% BSA, the secondary antibody bound with FITC to detect human antibodies was treated for 1 hour.

[11] = target: T7, human IGF1R extracellular domain, …; assay: ELISA on IGF1R protein, third experiment
[12] = target: T7, human IGF1R extracellular domain, …; assay: ELISA on IGF1R protein, first experiment
[13] = target: T7, human IGF1R extracellular domain, …; assay: ELISA on IGF1R protein, second experiment
[14] = target: T7, human IGF1R extracellular domain, …; assay: SPR (Biacore T200), His-tagged human IGF1R ECD captured by anti-His antibody on CM4 chip, bivalent model; F06 IgG
Procedure: The anti-his antibody against the His tag bound to the human IGF1R ECD as an antigen was diluted to 20 μg/ml in acetate pH4.0 buffer, and then immobilized in the reference/analytic channel of the CM4 chip to 10,000 RU as a target RU according to the amine coupling method. During capture, PBS was used as a running buffer, and the flow rate was maintained at 30 μL/min. During association/dissociation, the flow rate was 40 μL/min, and PBS was used as the running buffer. The association/dissociation was 5 minutes and 20 minutes, respectively.

T1 sequence (Q16143 whole entry): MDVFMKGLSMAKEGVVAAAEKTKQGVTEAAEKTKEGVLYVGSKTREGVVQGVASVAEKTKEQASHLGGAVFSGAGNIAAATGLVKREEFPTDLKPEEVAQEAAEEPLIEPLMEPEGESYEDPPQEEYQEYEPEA
T6 sequence (P10636 other isoform, or with tags, fused parts or gaps limits assumed): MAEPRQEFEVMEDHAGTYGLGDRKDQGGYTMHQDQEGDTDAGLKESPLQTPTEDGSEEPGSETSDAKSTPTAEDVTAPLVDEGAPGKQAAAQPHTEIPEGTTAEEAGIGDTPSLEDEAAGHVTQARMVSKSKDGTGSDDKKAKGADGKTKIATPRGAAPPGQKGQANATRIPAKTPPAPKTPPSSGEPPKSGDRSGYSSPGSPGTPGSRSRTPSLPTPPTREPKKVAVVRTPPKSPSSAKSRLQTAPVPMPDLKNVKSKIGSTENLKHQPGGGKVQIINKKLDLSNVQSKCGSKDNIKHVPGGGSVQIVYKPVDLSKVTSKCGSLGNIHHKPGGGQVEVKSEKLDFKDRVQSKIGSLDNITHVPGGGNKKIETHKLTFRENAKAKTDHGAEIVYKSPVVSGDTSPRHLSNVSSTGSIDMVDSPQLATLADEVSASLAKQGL
T5 sequence (O76070 whole entry): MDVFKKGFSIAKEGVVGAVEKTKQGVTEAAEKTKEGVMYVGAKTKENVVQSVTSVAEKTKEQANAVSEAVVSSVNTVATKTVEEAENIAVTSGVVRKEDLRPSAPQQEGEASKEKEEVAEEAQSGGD

binding result (human beta-synuclein): no binding | binding result [1]: no binding | binding result (Aβ42 (Monomer)): no binding | koff [2]: 0.000571 s⁻¹ | kon [2]: 2210 M⁻¹ s⁻¹ | koff [3]: 4.39e-05 s⁻¹ | kon [3]: 629000 M⁻¹ s⁻¹ | binding result (human gamma-synuclein): no binding | binding result (Tau protein aggregates): no binding
B1: chimeric 9B11 antibody (antibody, V domains shown)
VH: EVQLQESGGGLVQPKGSLKLSCAASGFTFNTYAMNWVRQAPGKGLEWVARIRSKSNNYATYYADSVKDRFTISRDDSQSMLYLQMNNLKTEDTAMYYCVRQDFDYWGQGTTLTVSS
VL: DIVMTQSPLSLPVSLGDQASISCRSSQSLVHSNGNTYLHWYLQKPGQSPKLLIYKVSNRFSGVPDRFSGSGSGTDFTLKISRVEAEDLGVYFCSQSTHVPLTFGAGTKLEQK
notes: also called ch9B11; 9B11 (chimeric)

EC50 [4]: 0.185 µg/mL and 1.23 nM | Kd [5]: 0.904 nM | Kd [6]: 0.018 nM
B2: 9B11 (mouse monoclonal anti-alpha-synuclein antibody) (antibody, V domains shown)
VH: B1 VH
VL: B1 VL

EC50 (read off the curve) [7]: ~0.3 nM
B3: 996 minibody (Fc fusion, not shown: a dimerising Fc or GST)
chain: QSVLTQPPSASGTPGQRVTISCTGSSSNIGSNAVNWYQQLPGTAPKLLIYSNSHRPSGVPDRFSGSKSGTSASLAISGLRSEDEADYYCATWDYSLSGYVFGCGTKLTVLGGGGSGGGGSGGGGSGGGGSEVQLLESGGGLVQTGGSLRLSCAASGFTFSSYDMSWVRQAPGKCLEWVSGIYHDGSSTYYADSVQGRFTISRDNSKNTLYLQMNSLRAEDTAVYYCARVSGTLSEPYAFFFNAMDVWGQGTLVTVSS

binding result (human beta-synuclein): no binding | binding result [1]: no binding | binding result (Aβ42 (Monomer)): no binding | koff [2]: 0.00186 s⁻¹ | koff [3]: 7.42e-05 s⁻¹ | kon [3]: 631000 M⁻¹ s⁻¹ | binding result (human gamma-synuclein): no binding | binding result (Tau protein aggregates): no binding
B4: chimeric 3A9 antibody (antibody, V domains shown)
VH: EVQLQESGGGLVKPGGSLKLSCAASGFTFSSYAMSWVRQTPEKRLEWVATISNGGGYTYYPDSVKGRFTISRDNAKNTLYLQMSSLRSEDTAMYYCARHITTVRPTKYFDYWGQGTTLTVSS
VL: DIVMTQSPKFMSTSVGDRVSITCKASQNVGTTVAWYQQKPGQSPKLLIYSASNRYTGVPDRFTGSGSGTDFTLTISNMQSEDLADYFCQQYSNYPLTFGAGTKLELR
notes: also called Ch 3A9; ch3A9

EC50 [4]: 0.319 µg/mL and 2.13 nM | Kd [5]: 1.32 nM | Kd [6]: 0.13 nM
B5: 3A9 (mouse monoclonal anti-alpha-synuclein antibody) (antibody, mouse IgG2b, V domains shown)
VH: B4 VH
VL: B4 VL

EC50 [4]: 0.327 µg/mL and 2.18 nM | Kd [5]: 2.87 nM | Kd [6]: 0.16 nM
B6: 11F11 (mouse monoclonal anti-alpha-synuclein antibody) (antibody, mouse IgG2b, V domains shown)
VH: EVQLQESGGGLVQPGGSLRLSCATSGFTFSDFYMEWVRQPPGKRLEWIAASRNKANDYTTEYSASVKGRFIVSRDTSQSILYLQMNALRAEDTAIYYCARDAHGKPFAYWGQGTLVTVSA
VL: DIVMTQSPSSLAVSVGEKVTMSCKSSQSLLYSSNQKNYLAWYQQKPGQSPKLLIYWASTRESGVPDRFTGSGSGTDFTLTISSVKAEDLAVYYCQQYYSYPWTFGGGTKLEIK

koff [8]: 5.36e-05 s⁻¹ | kon [8]: 845000 M⁻¹ s⁻¹ | EC50 [9]: 11.5 nM
B7: hu11F11(ver.1) (antibody, human IgG1, kappa, V domains shown)
VH: B6 VH with Q5V, I71T, V72I, T76D, Q78K, I80S, A87S, L115T, A120S
VL: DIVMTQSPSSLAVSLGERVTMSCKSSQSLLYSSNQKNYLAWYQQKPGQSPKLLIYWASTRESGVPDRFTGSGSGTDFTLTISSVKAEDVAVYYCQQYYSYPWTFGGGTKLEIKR
notes: humanized IgG1; also called Hu11F11-VH-v1 + Hu11F11-VLv3 4c

Kd [10]: 0.0596 nM | koff [8]: 0.000173 s⁻¹ | kon [8]: 1.19e+06 M⁻¹ s⁻¹ | GeoMean, Internalization at 37° C. (human IGF1R on cells): 3.18 | EC50 [9]: 15.1 nM
B8: hu11F11(ver.2) (antibody, human IgG1, kappa, V domains shown)
VH: B6 VH with Q5V, I71T, T76D, Q78K, I80S, A87S, L115T, A120S
VL: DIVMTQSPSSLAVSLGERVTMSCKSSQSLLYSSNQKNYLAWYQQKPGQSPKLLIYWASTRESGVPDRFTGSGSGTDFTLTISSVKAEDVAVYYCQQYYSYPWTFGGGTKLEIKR
notes: humanized IgG1; also called Hu11F11-VH-v2 + Hu11F11-VLv3 4c

Kd [10]: 0.0316 nM | kon [8]: 1.07e+06 M⁻¹ s⁻¹ | EC50 [9]: 13.4 nM
B9: hu11F11(ver.3) (antibody, human IgG1, kappa, V domains shown)
VH: B6 VH with Q5V, I71T, V72I, Q78K, I80S, A87S, L115T, A120S
VL: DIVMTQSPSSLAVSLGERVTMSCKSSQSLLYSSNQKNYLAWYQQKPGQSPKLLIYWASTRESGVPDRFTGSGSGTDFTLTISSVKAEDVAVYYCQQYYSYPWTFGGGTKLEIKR
notes: humanized IgG1; also called Hu11F11-VH-v3 + Hu11F11-VLv3 4c

Kd [10]: 0.0204 nM | koff [8]: 0.000291 s⁻¹ | kon [8]: 1.07e+06 M⁻¹ s⁻¹ | EC50 [9]: 12.9 nM
B10: hu11F11(ver.4) (antibody, human IgG1, kappa, V domains shown)
VH: B6 VH with Q5V, I71T, Q78K, I80S, A87S, L115T, A120S
VL: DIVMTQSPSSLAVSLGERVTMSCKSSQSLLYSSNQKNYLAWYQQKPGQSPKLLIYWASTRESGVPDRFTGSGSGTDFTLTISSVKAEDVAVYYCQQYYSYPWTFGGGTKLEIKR
notes: humanized IgG1; also called Hu11F11-VH-v4 + Hu11F11-VLv3 4c

EC50 [11]: 6.87 nM | EC50 [12]: 2.15 nM | Saturation value [12]: 1.1 | EC50 [13]: 2.66 nM | Saturation value [13]: 0.977
B11: 1564 clone (anti-IGF1R antibody, format not stated) (antibody, V domains shown)
VH: EVQLLESGGGLVQPGGSLRLSCAASGFTFSSYDMSWVRQAPGKGLEWVSAISYDNGNTYYADSVKGRFTISRDNSKNTLYLQMNSLRAEDTAVYYCAKGVLTTLMNWFDYWGQGTLVTVSS
VL: QSVLTQPPSASGTPGQRVTISCTGSSSNIGSNDVSWYQQLPGTAPKLLIYANSNRPSGVPDRFSGSKSGTSASLAISGLRSEDEADYYCGAWDDSLNGYVFGGGTKLTVL

EC50 [11]: 7.35 nM
B12: 1564-VL(N51D) (antibody, V domains shown)
VH: B11 VH
VL: B11 VL with N52D, P60S

EC50 [12]: 2.07 nM | Saturation value [12]: 1.18
B13: 1564-VL(N95aK) (antibody, V domains shown)
VH: B11 VH
VL: B11 VL with P60S, N97K

EC50 [13]: 2.2 nM | Saturation value [13]: 0.885
B14: 1564-VH(N54Q) (antibody, V domains shown)
VH: B11 VH with N55Q
VL: B11 VL

Kd [14]: 478 nM
B15: F06 IgG antibody (antibody, V domains shown)
VH: B11 VH
VL: B11 VL with A91T, D93A, D94G

EC50 [13]: 2.89 nM | Saturation value [13]: 0.933
B16: 1564-VH(N54D) (antibody, V domains shown)
VH: B11 VH with N55D
VL: B11 VL

EC50 [13]: 2.07 nM | Saturation value [13]: 0.896
B17: 1564-VL(N95aD) (antibody, V domains shown)
VH: B11 VH
VL: B11 VL with P60S, N97D

EC50 [12]: 2.63 nM | Saturation value [12]: 1.08
B18: 1564-VL(N95aH) (antibody, V domains shown)
VH: B11 VH
VL: B11 VL with P60S, N97H
